Measured values published in patent US20160346402A1 (Bayer, published 2016).

Tests used:
[1] = target: T1, TPP-2614, TweakR-ECD-34-68-hIgGFc-His-D47A (human); test: ELISA: IgG coated at 1 µg/ml; 8-fold diluted HEK293 supernatant with the TWEAKR(34-68)-Fc-His mutein added; anti-HIS-HRP, Amplex Red; signal [Rfu]
T1 construct: also called D47A mutein
Method: These TWEAKR(34-68) Fc muteins were expressed in HEK293 cells. To obtain dose-reaction data, IgGs were coated at a concentration of 1 μg/ml onto a 384-well Maxisorp ELISA plate, and a serial 2-fold dilution of the supernatant comprising the TWEAKR mutein was used as soluble binding partner. Detection was carried out using anti-HIS-HRP and Amplex Red.

[2] = target: T2, TPP-2607, TweakR-ECD-34-68-hIgGFc-His-S37A (human); test: alanine scan ELISA: IgG coated 1 µg/ml, HEK293 supernatant of TWEAKR(34-68)-Fc construct, anti-HIS-HRP
T2 construct: Used as HEK293 supernatant; also called S37A mutein

[3] = target: T3, TPP-2609, TweakR-ECD-34-68-hIgGFc-His-S40A (human); test: as above
T3 construct: Used as HEK293 supernatant; also called S40A mutein

[4] = target: T4, TPP-2612, TweakR-ECD-34-68-hIgGFc-His-S43A (human); test: as above
T4 construct: Used as HEK293 supernatant; also called S43A mutein

[5] = target: T5, TPP-2615, TweakR-ECD-34-68-hIgGFc-His-K48A (human); test: as above
T5 construct: Used as HEK293 supernatant; also called K48A mutein

[6] = target: T6, TPP-2608, TweakR-ECD-34-68-hIgGFc-His-R38A (human); test: as above
T6 construct: Used as HEK293 supernatant; also called R38A mutein

[7] = target: T7, TPP-2623, TweakR-ECD-34-68-hIgGFc-His-D62A (human); test: as above
T7 construct: Used as HEK293 supernatant; also called D62A mutein

[8] = target: T8, TPP-2624, TweakR-ECD-34-68-hIgGFc-His-F63A (human); test: as above
T8 construct: Used as HEK293 supernatant; also called F63A mutein

[9] = target: T9, TPP-2621, TweakR-ECD-34-68-hIgGFc-His-H60A (human); test: as above
T9 construct: Used as HEK293 supernatant; also called H60A mutein

[10] = target: T10, TPP-2610, TweakR-ECD-34-68-hIgGFc-His-S41A (human); test: as above
T10 construct: Used as HEK293 supernatant; also called S41A mutein

[11] = target: T11, TPP-2616, TweakR-ECD-34-68-hIgGFc-His-D51A (human); test: as above
T11 construct: Used as HEK293 supernatant; also called D51A mutein

[12] = target: T12, TPP-2619, TweakR-ECD-34-68-hIgGFc-His-R58A (human); test: as above
T12 construct: Used as HEK293 supernatant; also called R58A mutein

[13] = target: T13, TPP-2618, TweakR-ECD-34-68-hIgGFc-His-R56A (human); test: as above
T13 construct: Used as HEK293 supernatant; also called R56A mutein

[14] = target: T14, TPP-2611, TweakR-ECD-34-68-hIgGFc-His-W42A (human); test: as above
T14 construct: Used as HEK293 supernatant; also called W42A mutein (34-68)

[15] = target: T15, TPP-2625, TweakR-ECD-34-68-hIgGFc-His-L65A (human); test: as above
T15 construct: Used as HEK293 supernatant; also called L65A mutein

[16] = target: T16, TPP-2613, TweakR-ECD-34-68-hIgGFc-His-D45A (human); test: as above
T16 construct: Used as HEK293 supernatant; also called D45A mutein

[17] = target: T17, TPP-2620, TweakR-ECD-34-68-hIgGFc-His-P59A (human); test: as above
T17 construct: Used as HEK293 supernatant; also called P59A mutein

[18] = target: T18, TPP-2617, TweakR-ECD-34-68-hIgGFc-His-S54A (human); test: as above
T18 construct: Used as HEK293 supernatant; also called S54A mutein

[19] = target: T19, TPP-2622, TweakR-ECD-34-68-hIgGFc-His-S61A (human); test: as above
T19 construct: Used as HEK293 supernatant; also called S61A mutein

[20] = target: T20, TPP-2202, TWEAKR-ECD-28-80-hIgGFc-His (human); test: ELISA: TPP-2202 (TWEAKR 28-80-Fc) coated at 1 µg/ml; biotinylated IgG at 0.08 µg/ml (open bars) and 0.3 µg/ml (solid bars; legend of FIG. 3 prints 0.03); streptavidin-HRP, Amplex Red; Y = signal [Rfu]
T20 construct: also called TWEAKR-Fc fusion protein; full-length ectodomain Fc fusion
T20 sequence (chain, as listed by the source limits assumed): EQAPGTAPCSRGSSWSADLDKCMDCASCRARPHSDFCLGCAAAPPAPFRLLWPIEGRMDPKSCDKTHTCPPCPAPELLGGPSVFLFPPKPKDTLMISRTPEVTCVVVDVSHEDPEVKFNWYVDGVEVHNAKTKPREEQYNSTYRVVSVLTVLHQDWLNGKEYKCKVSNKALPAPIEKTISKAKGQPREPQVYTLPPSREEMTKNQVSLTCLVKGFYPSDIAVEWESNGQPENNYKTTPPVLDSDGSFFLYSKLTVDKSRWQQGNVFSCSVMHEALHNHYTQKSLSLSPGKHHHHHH
Method: FIG. 3: Interaction of the TWEAKR ectodomain with antibodies and reference antibodies. […] Detection was carried out using streptavidin-HRP and Amplex Red substrate.
Detection was carried out using streptavidin-HRP and Amplex Red substrate. IgGs were biotinylated using an about 2-fold molar excess of biotin-LC-NHS (Pierce; Cat. No. 21347) according to the instructions of the manufacturer and desalted using Zeba desalting columns (Pierce; Cat. No. 89889).

binding result [1]	binding result [2]	binding result [3]	binding result [4]	binding result [5]	binding result [6]	binding result [7]	binding result [8]	binding result [9]	binding result [10]	binding result [11]	binding result [12]	binding result [13]	binding result [14]	binding result [15]	binding result [16]	binding result [17]	binding result [18]	binding result [19]	binding result [20]	Binder
binds	–	–	–	–	–	–	–	–	–	–	–	–	–	–	–	–	–	–	–	PDL-192(TPP-1104) (antibody, human IgG1, kappa, V domains shown, Comparative antibody; variable domains from WO2009/020933 with human IgG1 constant region added) VH: QVELVESGGGLVQPGGSLRLSCAASGFTFSSYWMSWVRQAPGKGLEWVAEIRLKSDNYATHYAESVKGRFTISRDDSKNSLYLQMNSLRAEDTAVYYCTGYYADAMDYWGQGTLVTVSS VL: DIQMTQSPSSLSASVGDRVTITCRASQSVSTSSYSYMHWYQQKPGKAPKLLIKYASNLESGVPSRFSGSGSGTDFTLTISSLQPEDFATYYCQHSWEIPYTFGGGTKVEIKR
–	no binding	no binding	no binding	no binding	no binding	no binding	no binding	no binding	no binding	no binding	no binding	no binding	no binding	no binding	no binding	no binding	no binding	no binding	binds	P4A8(TPP-1324) (antibody, human IgG1, kappa, V domains shown, Comparative antibody; variable domains from WO2009/140177 with human IgG1 constant region added) VH: QVQLVQSGAEVKKPGASVKVSCKGSGYTFTDYGMHWVRQAPGQGLEWMGVISTYNGYTNYNQKFKGRVTMTVDKSTSTAYMELRSLRSDDTAVYYCARAYYGNLYYAMDYWGQGTLVTVSS VL: DIVLTQSPASLAVSLGQRATISCRASKSVSTSSYSYMHWYQQKPGQPPKLLIKYASNLESGVPARFSGSGSGTDFSLNIHPMEEDDTAMYFCQHSRELPFTFGGGTKLEIKR
